The target of this assay is T1, myc-tagged mouse separase, wild-type (WT) (mouse, UniProt P60330 1-2118).
T1 construct: Studied in HeLa cell extracts by co-immunoprecipitation and immunoblot; also called wild-type separase; wild-type mouse separase; not shown: myc tag
As to the kind of experiment: immunoprecipitation with securin from anaphase cell extract, immunoblot for separase-myc (FIG. 7A). The method, then: Typically, the cell extracts are mixed with […] of agarose beads conjugated to anti-myc tag (manufactured by MBL), or protein A beads (manufactured by Bio-RAD) coupled to the desired antibodies, and incubated for 2 hr at 4° C., then washed three times with IP buffer and three times with TBS-T (150 mM sodium chloride, 20 mM Tris pH 8.0, 0.05% (v/v) Tween 20) and then subjected to analysis.
In the wild-type mouse separase replaced cell and SA mutant mouse separase replaced cell, the cell cycle arrest by Monastrol, was cancelled. Forty minutes after cancellation of the cell cycle arrest by Monastrol a cell population enriched in anaphase cells was prepared. Then, a cell extract was obtained and subjected to immunoprecipitation with cyclin B1 and securin to analyze the presence or absence of separase-myc. As a result, separase having a small molecular weight, i.e., cleaved separase, is observed.
(In general: In western blotting, separated proteins are transferred to a membrane and probed.)

T1 sequence (P60330 whole entry): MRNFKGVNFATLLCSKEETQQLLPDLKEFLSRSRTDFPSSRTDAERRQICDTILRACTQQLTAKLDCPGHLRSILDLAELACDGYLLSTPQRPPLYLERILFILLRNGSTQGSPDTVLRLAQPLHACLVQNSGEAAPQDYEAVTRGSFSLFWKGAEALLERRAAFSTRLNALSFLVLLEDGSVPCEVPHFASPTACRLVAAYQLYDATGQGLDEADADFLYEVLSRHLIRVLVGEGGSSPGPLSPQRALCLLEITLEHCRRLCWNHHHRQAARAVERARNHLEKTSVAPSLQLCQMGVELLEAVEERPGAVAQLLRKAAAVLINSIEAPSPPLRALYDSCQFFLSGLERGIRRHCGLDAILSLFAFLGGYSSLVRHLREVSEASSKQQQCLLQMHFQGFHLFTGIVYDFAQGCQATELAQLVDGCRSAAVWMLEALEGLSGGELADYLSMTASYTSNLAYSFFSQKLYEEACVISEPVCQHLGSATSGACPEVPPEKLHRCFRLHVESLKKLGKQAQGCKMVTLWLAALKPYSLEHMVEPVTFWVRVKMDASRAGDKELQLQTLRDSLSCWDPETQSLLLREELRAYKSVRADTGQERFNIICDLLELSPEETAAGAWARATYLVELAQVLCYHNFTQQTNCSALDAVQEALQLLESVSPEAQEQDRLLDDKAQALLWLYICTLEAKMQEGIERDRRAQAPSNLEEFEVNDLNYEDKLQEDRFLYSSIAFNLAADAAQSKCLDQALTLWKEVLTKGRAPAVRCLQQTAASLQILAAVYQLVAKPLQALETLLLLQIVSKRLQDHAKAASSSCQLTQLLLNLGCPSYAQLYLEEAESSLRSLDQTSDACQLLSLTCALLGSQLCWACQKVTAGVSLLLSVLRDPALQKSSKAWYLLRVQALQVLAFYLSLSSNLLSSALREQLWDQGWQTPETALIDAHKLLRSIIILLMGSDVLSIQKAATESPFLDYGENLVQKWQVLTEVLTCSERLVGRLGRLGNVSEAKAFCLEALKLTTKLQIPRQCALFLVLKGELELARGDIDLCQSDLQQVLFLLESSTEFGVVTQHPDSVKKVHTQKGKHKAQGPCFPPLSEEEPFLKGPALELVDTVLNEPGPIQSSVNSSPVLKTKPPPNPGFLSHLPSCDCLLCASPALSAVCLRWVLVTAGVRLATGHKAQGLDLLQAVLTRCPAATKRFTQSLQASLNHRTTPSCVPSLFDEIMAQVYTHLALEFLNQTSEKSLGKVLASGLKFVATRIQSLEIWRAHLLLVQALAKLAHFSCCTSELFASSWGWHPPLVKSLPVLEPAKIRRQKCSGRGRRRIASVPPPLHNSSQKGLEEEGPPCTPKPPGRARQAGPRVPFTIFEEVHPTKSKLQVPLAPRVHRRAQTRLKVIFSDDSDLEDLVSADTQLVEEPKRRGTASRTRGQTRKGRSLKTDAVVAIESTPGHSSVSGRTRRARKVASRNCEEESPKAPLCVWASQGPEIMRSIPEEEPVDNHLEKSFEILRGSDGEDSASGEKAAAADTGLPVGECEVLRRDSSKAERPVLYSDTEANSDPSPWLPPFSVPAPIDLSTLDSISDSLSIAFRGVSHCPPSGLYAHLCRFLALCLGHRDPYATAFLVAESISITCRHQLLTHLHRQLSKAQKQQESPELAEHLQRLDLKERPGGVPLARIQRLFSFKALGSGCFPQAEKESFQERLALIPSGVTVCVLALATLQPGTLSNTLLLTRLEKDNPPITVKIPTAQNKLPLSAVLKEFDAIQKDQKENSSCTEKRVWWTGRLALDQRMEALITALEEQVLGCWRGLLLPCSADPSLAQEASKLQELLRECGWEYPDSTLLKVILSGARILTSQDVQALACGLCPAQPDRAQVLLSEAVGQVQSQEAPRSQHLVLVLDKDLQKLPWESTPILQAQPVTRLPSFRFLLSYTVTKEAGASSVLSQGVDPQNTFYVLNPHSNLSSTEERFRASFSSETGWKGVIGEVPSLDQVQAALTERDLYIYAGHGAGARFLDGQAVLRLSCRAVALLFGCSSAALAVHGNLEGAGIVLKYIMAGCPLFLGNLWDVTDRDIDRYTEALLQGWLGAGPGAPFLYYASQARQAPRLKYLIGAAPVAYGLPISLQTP

B1: securin (other, UniProt O95997 2-202, looked up)
chain: ATLIYVDKENGEPGTRVVAKDGLKLGSGPSIKALDGRSQVSTPRFGKTFDAPPALPKATRKALGTVNRATEKSVKTKGPLKQKQPSFSAKKMTEKTVKAKSSVPASDDAYPEIEKFFPFNPLDFESFDLPEEHQIAHLPLSGVPLMILDEERELEKLFQLGPPSPVKMPSPPWESNLLQSPSSILSTLDVELPPVCCDIDI
notes: Endogenous protein in HeLa cell extracts
With B1, the binding result was “binds”.
